Values quoted from earlier work, collected in article PMC2174977.

Target: chemoreceptor (Tar) (Escherichia coli) (UniProt P07017)
Chain of UniProt P07017 (P07017 whole entry): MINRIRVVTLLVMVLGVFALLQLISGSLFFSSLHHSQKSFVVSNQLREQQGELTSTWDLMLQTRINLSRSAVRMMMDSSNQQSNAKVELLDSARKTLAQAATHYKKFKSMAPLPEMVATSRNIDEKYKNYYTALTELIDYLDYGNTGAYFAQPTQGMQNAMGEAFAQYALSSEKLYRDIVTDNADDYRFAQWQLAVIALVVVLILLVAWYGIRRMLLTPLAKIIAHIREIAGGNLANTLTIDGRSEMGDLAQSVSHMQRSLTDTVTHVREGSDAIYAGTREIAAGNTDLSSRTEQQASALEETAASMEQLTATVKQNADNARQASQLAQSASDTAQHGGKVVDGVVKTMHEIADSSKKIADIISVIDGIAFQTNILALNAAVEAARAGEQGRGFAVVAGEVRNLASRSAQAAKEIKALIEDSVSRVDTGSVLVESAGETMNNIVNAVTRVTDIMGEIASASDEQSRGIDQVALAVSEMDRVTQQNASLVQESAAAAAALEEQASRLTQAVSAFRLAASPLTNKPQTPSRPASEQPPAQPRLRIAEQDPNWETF

CheR (from UniProt P07364)
Kd: 11 µM
